Patent publication US11149077B2, “Targeted therapeutics based on engineered proteins for tyrosine kinases receptors, including IGF-IR” (BRISTOL-MYERS SQUIBB COMPANY, priority 2006, dated 2021)

Key:
human IGF-IR = target: T1, human IGF-IR (Homo sapiens, UniProt P08069); assay: Surface plasmon resonance (BIAcore) binding kinetics and affinity on immobilized IGF-IR
T1 construct: The extracellular domain of human IGF-IR (aa 1-932) was cloned into a mammalian expression vector; made in house
Experimental: The binding kinetics of fibronectin-based scaffold proteins binding proteins to the target was measured using BIAcore 2000 or 3000 biosensors (Pharmacia Biosensor). A capture assay was developed utilizing an IGF-IR-Fc fusion. A similar reagent had been described by Forbes et al. (Forbes et al. 2002, European J. Biochemistry, 269, 961-968). The extracellular domain of human IGF-IR (aa 1-932) was cloned into a mammalian expression vector containing the hinge and constant regions of human IgG1. Transient transfection of the plasmid produced a fusion protein, IGF-IR-Fc which was subsequently purified by Protein A chromatography and captured on Protein A immobilized on Biasensor CM5 chips by amine coupling. The kinetic analysis involved the capture of IGF-IR-Fc on Protein A followed by injection of the fibronectin-based scaffold protein in solution and regeneration of the Protein A surface by glycine pH 2.0. Sensorgrams were obtained at each concentration and were evaluated using a program Biaevaluation, BIA Evaluation 2.0 (BIAcore), to determine the rate constants ka (kon) and kd (koff) The dissociation constant, KD was calculated from the ratio of rate constants koff/kon. Typically, a concentration series (2 uM to 0 uM) of purified fibronectin-based scaffold protein was evaluated for binding to protein A captured human IGF-IR-Fc fusion protein.

[1] = Differential scanning calorimetry (thermal stability, Tm); assay type: physicochemical; details: DSC
Experimental: Differential Scanning calorimetry (DSC) analysis of midscaled clones was performed to determine thermal stability. A 1 mg/ml solution of appropriate clone was scanned in a N-DSC II calorimeter (calorimetry Sciences Corp) by ramping the temperature from 5° C. to 95° C. at a rate of 1 degree per minute under 3 atm pressure. The data was analyzed vs. a control run of the appropriate buffer using a best fit using Orgin Software (OrginLab Corp).

human insulin receptor = target: T2, human insulin receptor (Homo sapiens, UniProt P06213); assay: BIAcore binding to immobilized human insulin receptor; details: percentage of signal for insulin binding at similar concentration
T2 construct: purchased R&D Systems (Minneapolis, Minn.)
Experimental: One liter E. coli growths of selected optimized clones were prepared and the proteins were purified.
In brief, 60 ug/mL of IR diluted in acetate 4.5 was coupled/immobilized to a level of 8300 RU and 11.9 ug/mL of VEGF-R2-Fc diluted in acetate 5.0 was immobilized to a level of 9700 RU on flow cells 2 and 3. A blank reference surface was prepared on FC1. […] Fibronectin-based scaffold proteins were diluted to 10 uM in HBS-EP (10 mM Hepes 150 mM NaCl 3 mM EDTA 0.05% Surfactant P20) and injected at 20 uL/min for 3 minutes over the flow cells at 25 C and dissociation was observed over 10 mins.

RH41 sarcoma xenografts = assay: In vivo antitumor activity in RH41 sarcoma xenografts; details: for AVE weight change: Day 20 to Day 42; for % TGI: calculated on day 39; for LCK: gross log cell kill
Experimental: *Tumor growth inhibition and probability values calculated on day 39. ^aVehicle was 80% PEG400, 20% dH2O. ^bVehicle was PBS. ^cAverage weight change for each group is the mean difference between weight at the start of treatment (Day 20) and after the end of treatment (Day 42). TVDT was calculated for a size of 500 mg Abbreviations used are as follows: po, oral route; ip, intraperitoneal route; LCK, gross log cell kill calculated as LCK=T−C/(3.32×TVDT) where T-C is the difference in time in days for the treated tumors (T) to reach a predetermined size (tumor target size) relative to the vehicle control group (C) divided by the tumor volume doubling time (TVDT) multiplied by 3.32.
Tumors were propagated in nude mice. Tumor passages occurred every four weeks for human RH41 xenografts. With regard to efficacy testing human tumor xenografts were implanted in nude mice. All tumor passages were subcutaneous (sc).
Antitumor activity was evaluated in terms of: a) cures, and for the murine tumor models, increases in lifespan reflected by the relative median survival time (MST) of treated (T) versus control (C) groups (i.e. % T/C values); and b) primary tumor growth inhibition determined by calculating the relative median times for T and C mice to grow tumors of a predetermined “target” size (1 gm for all sc tumor models described) and expressed as T-C values, in days. The definition of a cured mouse was one whose tumor was undetectable, or <35 mg, when assessed more than 10 tumor volume doubling times (TVDTs) post-treatment. The activity criterion for tumor inhibition/reduction was a statistically significant delay in primary tumor growth consistent with 1 gross log cell kill (LCK). The following formula was employed to calculate LCK: LCK=T−C/(3.32×TVDT)
Where, TVDT=median time (days) for control tumors to reach target size—median time (days) for control tumors to reach half the target size. […] The maximum tolerated dose (MTD) is defined as the dose level immediately […] which excessive toxicity (i.e. more than one death) occurred. […] Statistical evaluations of data were performed using Gehan's generalized Wilcoxon test (Gehan, Biometrika 52:203-223, 1965). Western Blot Analysis of 385A08-Fc

[2] = Size-exclusion chromatography (solution properties, monomericity); assay type: physicochemical
Experimental: Size-exclusion chromatography (SEC) was performed using a TSKgel Super SW2000 column (TOSOH Biosciences, LLC), 4.6 mm×30 cm, on an Agilent 1100 HPLC system with UV detection at A214 nm and A280 nm and with fluorescence detection (excitation=280 nm, emission=350 nm). A buffer of 100 mM sodium sulfate, 100 mM sodium phosphate, 150 mM sodium chloride, pH 6.8 at a flow rate of 100 μL/min was employed. Samples (0.1 to 1 μg each) at a concentration of approximately 100 μg/mL were injected separately. Gel filtration standards (Bio-Rad Laboratories, Hercules, Calif.) were used for molecular weight calibration.

[3] = Table 4, optimized 218C04 clones
[4] = Table 7, FG loop optimized 338A06 clones

Molecule	ka (human IGF-IR; [3])	kd (human IGF-IR; [3])	Tm ([1]; Table 3) [°C]	% IR Binding at 10 μM (human insulin receptor; Table 8) [%]	ka (human IGF-IR; [4])	kd (human IGF-IR; [4])	Tm ([1]; Table 9) [°C]	also measured
353F10 (protein) VSDVPRDLEVVAATPTSLLISWPTHYKVARYYRITYGETGGNSPVQEFTVPKHTYTATISGLKPGVDYTITVYAVTTTKGLRHYGPISINYRTHHHHHH	3.7 1/M*s × 10^+6	2.1 1/s × 10^−4	59	–	–	–	–	–
353H09 (protein) VSDVPRDLEVVAATPTSLLISWSDKLKVQRYYRITYGETGGNSPVQEFTVPKHDRTATISGLKPGVDYTITVYAVTKMRDYRPISINYRTHHHHHH	3.8 1/M*s × 10^+6	2.2 1/s × 10^−4	55	–	–	–	–	% IR Binding at 10 μM (human insulin receptor; Table 5): 0%
387B01 (protein) VSDVPRDLEVVAATPTSLLISWSARLKVARYYRITYGETGGNSPVQEFTVPKNVYTATISGLKPGVDYTITVYAVTSLRDYGPISINYRTHHHHHH	–	–	–	0	6.5 1/M*s × 10^+6	4.4 1/s × 10^−4	63	–
386F10 (protein) VSDVPRDLEVVAATPTSLLISWSARLKVARYYRITYGETGGNSPVQEFTVPKNVYTATISGLKPGVDYTITVYAVTLLRDYGPISINYRTHHHHHH	–	–	–	3	1.9 1/M*s × 10^+6	2.3 1/s × 10^−4	58	–
339A01 (protein) VSDVPRDLEVVAATPTSLLISWSTALKVQRYYRITYGETGGNSPVQEFTVPKHSHTATISGLKPGVDYTITVYAVTKMRDYRPISINYRTHHHHHH	1.2 1/M*s × 10^+6	6.7 1/s × 10^−4	–	–	–	–	–	–
385A08 (protein) VSDVPRDLEVVAATPTSLLISWSARLKVARYYRITYGETGGNSPVQEFTVPKNVYTATISGLKPGVDYTITVYAVTRFRDYQPISINYRTHHHHHH	–	–	–	0	5.7 1/M*s × 10^+6	1.9 1/s × 10^−4	59	ka (human IGF-IR; Table 10, PEGylated variants): 6.9 1/M*s × 10^+6; kd (human IGF-IR; Table 10, PEGylated variants): 1.6 1/s × 10^−4; AVE weight change (RH41 sarcoma xenografts; 20 mg/kg, 2qdx20, 28 ip): 0.6 g; % TGI (RH41 sarcoma xenografts; 20 mg/kg, 2qdx20, 28 ip): 33%; LCK (RH41 sarcoma xenografts; 20 mg/kg, 2qdx20, 28 ip): 0.2; AVE weight change (RH41 sarcoma xenografts; 40 mg/kg, 2qdx20, 28 ip): 1.0 g; % TGI (RH41 sarcoma xenografts; 40 mg/kg, 2qdx20, 28 ip): 19%; LCK (RH41 sarcoma xenografts; 40 mg/kg, 2qdx20, 28 ip): 0.2
386A03 (protein) VSDVPRDLEVVAATPTSLLISWSARLKVARYYRITYGETGGNSPVQEFTVPKNVYTATISGLKPGVDYTITVYAVTNLRDYGPISINYRTHHHHHH	–	–	–	3	5.2 1/M*s × 10^+6	4.6 1/s × 10^−4	62	–
354A10 (protein) VSDVPRDLEVVAATPTSLLISWSNRLVVKRYYRITYGETGGNSPVQEFTVPHQMKTATISGLKPGVDYTITVYAVTPGGYSGRNYGPISINYRTHHHHHH	1.1 1/M*s × 10^+6	1.8 1/s × 10^−4	46	–	–	–	–	–
338A05 (protein) VSDVPRDLEVVAATPTSLLISWSDSLKVSRYYRITYGETGGNSPVQEFTVPKQYHTATISGLKPGVDYTITVYAVTPSNIIGRHYGPISINYRTHHHHHH	1.3 1/M*s × 10^+6	3.3 1/s × 10^−4	68	–	–	–	–	–
218C04 (protein) VSDVPRDLEVVAATPTSLLISWSPYLRVARYYRITYGETGGNSPVQEFTVPSSARTATISGLKPGVDYTITVYAVTPSNIIGRHYGPISINYRT	–	–	–	–	–	–	–	Kd (human IGF-IR; clone in solution phase, immobilized IGF-IR): 1.8 nM; solution behaviour by SEC (monomer / aggregation) [2]: virtually all monomeric
385A08-PEG40: 385A08 (SEQ ID NO: 203) coupled via Cys97 to a mono-functional branched 40 kDa PEG (conjugate, branched 40 kDa PEG via Cys97) GVSDVPRDLEVVAATPTSLLISWSARLKVARYYRITYGETGGNSPVQEFTVPKNVYTATISGLKPGVDYTITVYAVTRFRDYQPISINYRTEIDKPCQ	–	–	–	–	–	–	–	off-rate (kd) relative to unmodified 385A08 (human IGF-IR): slightly increased; slower on-rate (ka) relative to unmodified 385A08 (human IGF-IR): approximately 10 fold; ka (human IGF-IR; Table 10, PEGylated variants): 0.6 1/M*s × 10^+6; kd (human IGF-IR; Table 10, PEGylated variants): 2.1 1/s × 10^−4; Outcome by (% TGI) (RH41 sarcoma xenografts; 40 mg/kg, TIWx3, 20 ip): A (A % TGI value of >50% was considered active); % TGI (RH41 sarcoma xenografts; 40 mg/kg, TIWx3, 20 ip): 56%; LCK (RH41 sarcoma xenografts; 40 mg/kg, TIWx3, 20 ip): 0.4
